Experimental data as given in the supplement of paper PMC9170038.

Assays:
[1] = system: K4 kissing-loop RNA reporter; assay: apparent KD of K4 kissing-loop reporter; higher = weaker reporter binding; settings: Eterna round: R107;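 further: bound reporter read as fluorescence of individual clusters on recovered sequencing chips by microscopy, with normalized cluster intensities fitted with a binding model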
Protocol: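 RNA-MaP round R107: designed RNA switches with theophylline, tryptophan, arginine or FMN aptamers are transcribed on-chip within common flanks. They are titrated with a labelled K4 kissing-loop RNA reporter in RNA-MaP buffer (100 mM Tris pH 7.5, 80 mM KCl, 4 mM MgCl2), without ligand or with the indicated ligand. Median apparent KD per design.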

[2] = system: MS2 coat protein; assay: apparent KD of MS2 coat protein; designed switch direction (-1 OFF switch, 1 ON switch): -1; higher = weaker reporter binding
Procedure, shortened: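 Stalled E. coli RNA polymerase transcribed designed RNA switches on Illumina chips, which were then titrated with SNAP-549-labelled MS2 coat protein, doubling from 0.7 or 1.5 nM to 3 µM. Steps lasted from 0.8–1.5 h at the lowest concentration to 10–20 min at the highest. The apparent KD is each design's median over clusters of curve-fitted normalised fluorescence.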

[3] = input ligand: theophylline 20 uM
[4] = input ligand: tryptophan 2.4 mM

**Q.** With “UGAGGAGAAUAUGAUACCAGCAGAGAGAGAGAGGAAGUAUAGUGAUGUUAUAUGAGAGAAUGCCCUUGGCAGCAUAAGAAGAAGG [SSTheophylB.B]” as the sequence, how does the “apparent KD of K4 kissing-loop reporter” value ([1]; input ligand: FMN 200 uM) read?
**A.** 0.148 µM

**Q.** And the “apparent KD of K4 kissing-loop reporter” value ([1]; input ligand: arginine 13.2 mM)?
**A.** 0.121 µM

**Q.** What about the “apparent KD of K4 kissing-loop reporter” value ([1]; input ligand: none) of the same sequence?
**A.** 0.142 µM

**Q.** And the “apparent KD of K4 kissing-loop reporter” value [1, 3]?
**A.** 0.129 µM

**Q.** What about the “apparent KD of K4 kissing-loop reporter” value [1, 4] of the same sequence?
**A.** 0.125 µM

**Q.** What does the source list for “GCAGUGAUGUUGCGCGGGUACGGUGGAGUGCGAGGACCGGUACGGCCGCCACUCGUACGGAACUGGCUAAUAUAUGGAUAGGUGA [VI]”?
**A.** apparent KD of K4 kissing-loop reporter ([1]; input ligand: FMN 200 uM): 0.397 µM; apparent KD of K4 kissing-loop reporter ([1]; input ligand: arginine 13.2 mM): 0.291 µM; apparent KD of K4 kissing-loop reporter ([1]; input ligand: none): 0.383 µM; apparent KD of K4 kissing-loop reporter [1, 3]: 0.379 µM; apparent KD of K4 kissing-loop reporter [1, 4]: 0.336 µM

**Q.** For “UCGUCCGGAUUACUCGUGGUCAUGGUCGAUACCAGUAGAUUAAUCUACCCUUGGCAGCGACAUGAGUGAUGUUCAUGUGCAAUGA [KL-XTheo-A6 #analogue]”, which “apparent KD of K4 kissing-loop reporter” value ([1]; input ligand: FMN 200 uM) is on record?
**A.** 0.383 µM

**Q.** What about the “apparent KD of K4 kissing-loop reporter” value ([1]; input ligand: arginine 13.2 mM) of the same sequence?
**A.** 0.341 µM

**Q.** What about the “apparent KD of K4 kissing-loop reporter” value ([1]; input ligand: none) of the same sequence?
**A.** 0.36 µM

**Q.** What about the “apparent KD of K4 kissing-loop reporter” value [1, 3] of the same sequence?
**A.** 0.492 µM

**Q.** What about the “apparent KD of K4 kissing-loop reporter” value [1, 4] of the same sequence?
**A.** 0.383 µM

**Q.** What does the source list for “CUCGACACGGGAAGGAGCGGUUGCGUGUGCCAGUGAUGUUGGAUCAGCAGACUGCCCGGUAGCCAGGUAGGUCGCCUGUGCUGAG [Esbeescexe]”?
**A.** apparent KD of K4 kissing-loop reporter ([1]; input ligand: FMN 200 uM): 0.219 µM; apparent KD of K4 kissing-loop reporter ([1]; input ligand: arginine 13.2 mM): 0.166 µM; apparent KD of K4 kissing-loop reporter ([1]; input ligand: none): 0.162 µM; apparent KD of K4 kissing-loop reporter [1, 3]: 0.189 µM; apparent KD of K4 kissing-loop reporter [1, 4]: 0.142 µM

**Q.** With “UUCAUCGUGGUUCGCGGGUGGUAUGAAAAGCGAGGACCGGUACGGCCGCCACUCGGUUCCGCUUGUUGAGUGAUGUUCAAUAUUU” as the sequence, how does the “apparent KD of K4 kissing-loop reporter” value ([1]; input ligand: FMN 200 uM) read?
**A.** 0.207 µM

**Q.** And the “apparent KD of K4 kissing-loop reporter” value ([1]; input ligand: arginine 13.2 mM)?
**A.** 0.281 µM

**Q.** And the “apparent KD of K4 kissing-loop reporter” value ([1]; input ligand: none)?
**A.** 0.251 µM

**Q.** What about the “apparent KD of K4 kissing-loop reporter” value [1, 3] of the same sequence?
**A.** 0.35 µM

**Q.** What about the “apparent KD of K4 kissing-loop reporter” value [1, 4] of the same sequence?
**A.** 0.229 µM

**Q.** For “UACUAGUGAAACUAGUAGGUGCUAGGUGAAGGAGCGAUCGAAAGAUCAGGUAGGUCGCACCUUCCUGAGUGAUGUUCAGGUAAUA [KL-SSArg-A3]”, which “apparent KD of K4 kissing-loop reporter” value ([1]; input ligand: FMN 200 uM) is on record?
**A.** 0.0472 µM

**Q.** And the “apparent KD of K4 kissing-loop reporter” value ([1]; input ligand: arginine 13.2 mM)?
**A.** 0.0296 µM

**Q.** And the “apparent KD of K4 kissing-loop reporter” value ([1]; input ligand: none)?
**A.** 0.0445 µM

**Q.** And the “apparent KD of K4 kissing-loop reporter” value [1, 3]?
**A.** 0.0591 µM

**Q.** And the “apparent KD of K4 kissing-loop reporter” value [1, 4]?
**A.** 0.0409 µM

**Q.** How did the “apparent KD of K4 kissing-loop reporter” value ([1]; input ligand: FMN 200 uM) turn out when “GGCAUGGUGACGCGGCUGCCAUGCACUUGGGAGGAUAUGUUUCGUGACAGAAGGCCCAGUGAUGUUGGGUCUGUUCAAAAGGACU [Lerere]” was run?
**A.** 0.434 µM

**Q.** And the “apparent KD of K4 kissing-loop reporter” value ([1]; input ligand: arginine 13.2 mM)?
**A.** 0.135 µM

**Q.** What about the “apparent KD of K4 kissing-loop reporter” value ([1]; input ligand: none) of the same sequence?
**A.** 0.146 µM

**Q.** And the “apparent KD of K4 kissing-loop reporter” value [1, 3]?
**A.** 0.147 µM

**Q.** And the “apparent KD of K4 kissing-loop reporter” value [1, 4]?
**A.** 0.119 µM

**Q.** What does the source list for “UUUAGUUCAGGAUAUGUAGAAUUAAACAUGAGGAUCACCCAUGUAGUUCCUGAUCCUGCUACAGAAGGGAACAUUU [Mat - Exclusion 5 - Eli Mod - D13] (Eterna round: R97, puzzle: Exclusion 5)”?
**A.** apparent KD of MS2 coat protein ([2]; input ligand: FMN 200 uM): 0.0248 µM; apparent KD of MS2 coat protein ([2]; input ligand: none): 0.0172 µM

**Q.** With “UUUAAUUUUUUUUUUUUACAAGCUUUUUGCUCGUCUUAUACAUGAGGAUCACCCAUGUGGGUGGAGGAUAAAUUAUC [JMF 35] (puzzle: Sensor v3, turn-off variant 2)” as the sequence, how does the “apparent KD of MS2 coat protein” value ([2]; Eterna round: R95, input ligand: FMN 200 uM) read?
**A.** 0.0606 µM

**Q.** What about the “apparent KD of MS2 coat protein” value ([2]; Eterna round: R95, input ligand: microRNA oligo, concentration not stated) of the same sequence?
**A.** 0.0454 µM

**Q.** What about the “apparent KD of MS2 coat protein” value ([2]; Eterna round: R95, input ligand: none) of the same sequence?
**A.** 0.0939 µM

**Q.** Which “apparent KD of MS2 coat protein” value ([2]; input ligand: FMN 200 uM) does the source give for “GUUCGGGCAGGAUAUACAUGAGGAUCACCCAUGUGUGUCCAUACGCGUGAGUCUUCGUGUAGAAGGGUUUGGGC [-30.5, -27.8 kcal, 20% A] (Eterna round: R97, puzzle: Exclusion 3)” here?
**A.** 0.0273 µM

**Q.** What about the “apparent KD of MS2 coat protein” value ([2]; input ligand: none) of the same sequence?
**A.** 0.0211 µM

**Q.** What does the source list for “GUAGAGUGAGGAUAUACGAGAUCGAUAGAUCGGCGAUCCAUACAUGAGGAUCACCCAUGUAGAAGGCACUCUAC [Mat - Exclusion 2 - Eli Mod - D2] (Eterna round: R97, puzzle: Exclusion 2)”?
**A.** apparent KD of MS2 coat protein ([2]; input ligand: FMN 200 uM): 0.625 µM; apparent KD of MS2 coat protein ([2]; input ligand: none): 0.0293 µM

**Q.** For “GCAAGCUUUUAGAUUUUCAACAUGAGGAUCACCCAUGUUCGUCUUGUGCUCGGGCUUGGGCGGUGUCCGGGUUUGGG [JL TOV1 3.76 sellena mod] (Eterna round: R97, puzzle: Sensor, turn-off variant 1)”, which “apparent KD of MS2 coat protein” value ([2]; input ligand: FMN 200 uM) is on record?
**A.** 0.0362 µM

**Q.** And the “apparent KD of MS2 coat protein” value ([2]; input ligand: none)?
**A.** 0.0383 µM
